According to US20190322748A1 (Hoffmann-La Roche, published 2019):
Where “and” joins values, the source holds several entries; their conditions need not be identical. Identical values can stand only once. Like-named read-outs stand apart in the source and are kept apart here.

Assays:
[1] = target: T1, human PD1-ECD (human, UniProt Q15116 25-170); test: SPR; row head 'Affinity KD 37°C [nM] *)', second of two values (equals the 25 C value of Table 9); second of the two values in the cell; footnote *) not given, so the difference from the first value is not told
T1 construct: SPR analyte; also called hu PD1-ECD

[2] = target: T2, biotinylated PD1-ECD-AviHis (human, UniProt Q15116 25-170, biotinylated, site not stated); test: ELISA on coated biotinylated PD1-ECD-AviHis
T2 construct: also called huPD1; hu PD1

[3] = target: T1, human PD1-ECD; test: SPR; row head 'Affinity KD 37°C [nM] *)', first of two values, footnote not explained; first of the two values in the cell; row head KD 37°C, footnote *) not given
[4] = target: T3, Tim3-CLIP (on transiently transfected HEK293 cells) (human, CLIP-tag labelled with Clip-Red); test: cell-based TR-FRET on SNAP-tagged PD1 / CLIP-tagged TIM3 HEK293 cells, 1 h at 4 C; signal needs both receptors bound at once
T3 construct: The plasmid encodes residues 1-202 including the signal peptide; also called CLIP-tagged TIM3

[5] = target: T4, full-length human PD1 on cells (CHO-K1 stably transfected with plasmid 15311_hPD1-fl_pUC_Neo) (human, UniProt Q15116 25-288); test: cell-based or functional assay
[6] = target: T2, biotinylated PD1-ECD-AviHis; test: ligand replacing ELISA on coated PD1-ECD-AviHis; row head 'IC50 PD-L1, 2', competitor not told apart; blocking of ligand binding; head says 'PD-L1, 2', competitor not told apart
[7] = target: T4, full-length human PD1 on cells (CHO-K1 …); test: cell-based or functional assay; remark: listed apart in the source
[8] = target: T1, human PD1-ECD; test: SPR Biacore T200, Ab captured on anti-human IgG, 25 C
[9] = target: T4, full-length human PD1 on cells (CHO-K1 …); test: cell-based or functional assay; remark: listed apart in the source
[10] = target: T5, biotinylated TIM3-ECD-AviHis (human, UniProt Q8TDQ0 22-202, biotinylated, site not stated); test: ELISA on coated biotinylated TIM3-ECD-AviHis
T5 construct: also called huTIM3; Hu TIM3

[11] = target: T4, full-length human PD1 on cells (CHO-K1 …); test: cell-based or functional assay; remark: listed apart in the source
[12] = target: T2, biotinylated PD1-ECD-AviHis; test: ELISA on coated biotinylated PD1-ECD-AviHis; remark: listed apart in the source
[13] = target: T6, full-length human Tim3 on cells (CHO-K1 stably transfected with plasmid 15312_hTIM3-fl_pUC_Neo) (human, UniProt Q8TDQ0 22-301); test: cellular ELISA on CHO-TIM3 (values in relation to the samples max value)
T6 construct: Also used as the target of the MLR read-outs (native TIM-3); also called CHO-Tim3; CHO-TIM3

[14] = target: T7, Tim3-ECD-His-Biotin (human, UniProt Q8TDQ0 22-202, biotinylated with BirA Ligase, site not stated); test: ELISA on human Tim3
T7 construct: also called human Tim3 (ELISA); Biochem Human

[15] = target: T8, huFc fused dimeric human Tim3-ECD (human, UniProt Q8TDQ0 22-202); test: SPR BIAcore B4000, Ab captured on anti-mouse IgG, 25 C, dimeric antigen (avidity)
T8 construct: also called huTim3Fc; Fc-tagged human Tim3-ECD dimer

[16] = target: T6, full-length human Tim3 on cells (CHO-K1 …); test: cell ELISA on CHO-K1 cells with full-length human Tim3
[17] = target: T6, full-length human Tim3 on cells (CHO-K1 …); test: cellular ELISA on CHO-TIM3
[18] = target: T8, huFc fused dimeric human Tim3-ECD; test: SPR, Ab captured, dimer Tim3 (avidity)
[19] = target: T7, Tim3-ECD-His-Biotin; test: ELISA on human Tim3 (values in relation to the samples max value)
[20] = target: T7, Tim3-ECD-His-Biotin; test: ELISA on streptavidin-captured Tim3-ECD-His-Biotin
[21] = target: T9, monomeric human Tim3-ECD (human, UniProt Q8TDQ0 22-202); test: SPR BIAcore B4000, Ab captured on anti-mouse IgG, 25 C
T9 construct: SPR analyte; also called huTim3; hu Tim3-ECD

[22] = target: T9, monomeric human Tim3-ECD; test: SPR, Ab captured, monomer Tim3
[23] = target: T10, monomeric cyno Tim3-ECD (cynomolgus, UniProt A0A2K5U3G7 22-195); test: SPR BIAcore B4000, Ab captured on anti-mouse IgG, 25 C
T10 construct: extracellular domain; also called cyTim3; cynomolgus Tim3
T10 sequence: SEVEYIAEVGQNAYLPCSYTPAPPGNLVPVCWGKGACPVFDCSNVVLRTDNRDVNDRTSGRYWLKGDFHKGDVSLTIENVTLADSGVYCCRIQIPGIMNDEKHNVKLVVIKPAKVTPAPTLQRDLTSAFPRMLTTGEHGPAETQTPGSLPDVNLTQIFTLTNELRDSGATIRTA

B1: chimeric PD1-0103 (antibody, human IgG1, V domains shown)
VH: EVILVESGGGLVKPGGSLKLSCAASGFSFSSYTMSWVRQTPEKRLDWVATISGGGRDIYYPDSVKGRFTISRDNAKNTLYLEMSSLMSEDTALYYCVLLTGRVYFALDSWGQGTSVTVSS
VL: KIVLTQSPASLPVSLGQRATISCRASESVDTSDNSFIHWYQQRPGQSPKLLIYRSSTLESGVPARFSGSGSRTDFTLTIDPVEADDVATYYCQQNYDVPWTFGGGTKLEIK
Q: Which Kd [1] does the source give for B1 here?
A: 0.8 nM

Q: And the EC50 [2]?
A: 0.2 nM

Q: What about the Kd [3] of the same binder?
A: 2 nM

Q: Does B1 bind [4]?
A: no binding (tested: about 20 nM)

Q: What about the “EC50 of IFN-gamma secretion in MLR, donors D2 + D6” value (“EC50 … donors D2 + D6” for short) [5] of the same binder?
A: 6 nM

Q: And the IC50 [6]?
A: 1.35 nM

Q: What about the “EC50 … donors D2 + D6” value [7] of the same binder?
A: 7.7 nM

Q: And the Kd [8]?
A: 0.8 nM

Q: And the koff [8]?
A: 0.000307 s⁻¹

Q: What about the kon [8] of the same binder?
A: 386000 M⁻¹ s⁻¹

Q: And the “EC50 of IFN-gamma secretion in MLR, donors D1 + D3” value [9]?
A: 5.7 nM

Q: What about the “EC50 of IFN-gamma secretion in MLR, donors D2 + D4” value [9] of the same binder?
A: 5.7 nM

Q: Does B1 bind [10]?
A: no binding

Q: What about the “EC50 … donors D2 + D6” value [11] of the same binder?
A: 6.5 nM

Q: And the EC50 [12]?
A: 0.12 nM

B2: Tim3_0016 variant (0018) (antibody, V domains shown)
VH: QVTLKESGPGILQPSQTLSLTCSFSGFSLSTSGMSVGWIRQPSGKGLEWLAHIWLNDDVFFNPALKRRLTISKDTSNNQVFLQIASVVTADTATYYCVRANGYLYALDYWGQGISVTVSS
VL: QIVLTQSPAIMSASPGQKVTITCSASSSVNYTQWYQQKLGSSPKLWIYDAFKLAPGVPARFSGSGTGTSYSLTISSMEAEDAASYFCHQWSSYPWTFGGGTKLEIK
notes: Mouse monoclonal antibody; also called Tim3_0018; Tim3 0018
Q: Which EC50 [13] does the source give for B2 here?
A: 0.0264 µg/mL

Q: What about the Inflexion point [14] of the same binder?
A: 15.3 ng/mL

Q: What about the Kd [15] of the same binder?
A: 1.11 nM

Q: And the EC50 [16]?
A: 0.52 nM and 0.087 µg/mL

Q: What about the Inflexion point [17] of the same binder?
A: 29.4 ng/mL

Q: What about the Kd [18] of the same binder?
A: 1.1 nM

Q: And the EC50 [19]?
A: 0.0151 µg/mL

Q: And the EC50 [20]?
A: 0.56 nM and 0.094 µg/mL

Q: And the Kd [21]?
A: 3.4 nM

Q: And the Kd [22]?
A: 3.4 nM

B3: Tim3_0022 (antibody, V domains shown)
VH: EVQLQESGPSLVKPSQTLSLTCSVTGDSIASAYWNWIRKFPGNKLEYMGYINYSGSTYYNPSLKSRISITRDTSQNQYYLQLNSVTTEDTATYYCVTGDYFDYWGRGTTLTVSS
VL: DIQMTQSPSSLSAYLGGKVTITCKARQDVRKNIGWYQHKPGKGPRLLIWYTSTLQSGIPSRFSGSGSGRDYSFNINNLEPEDIATYYCLQYDNLPFTFGTGTKLEIR
Q: Which Kd [23] does the source give for B3 here?
A: 28.4 nM
